This assay deals with human CD81 on Hep3B hepatoma cells (human) (UniProt P60033). Put plainly: cell-based or functional assay.
Sequence of UniProt P60033 (P60033 whole entry): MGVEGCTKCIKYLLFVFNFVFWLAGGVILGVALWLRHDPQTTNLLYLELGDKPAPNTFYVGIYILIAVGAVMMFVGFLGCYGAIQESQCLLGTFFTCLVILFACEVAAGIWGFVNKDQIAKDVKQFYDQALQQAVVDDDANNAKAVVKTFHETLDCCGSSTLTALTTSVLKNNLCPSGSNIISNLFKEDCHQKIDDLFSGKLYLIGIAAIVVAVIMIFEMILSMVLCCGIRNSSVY

As to “mouse anti-human CD81 monoclonal antibody, clone 1.3.3.22 (Santa Cruz Biotechnology)”, the fold decrease in infectivity of Bole1a HCVpp on Hep3B cells (luciferase RLU) turned out to be 10 fold.

These data come from patent US20170043011A1.
